Results: US20140004122A1, “METHODS FOR TREATING OR PREVENTING CHOLESTEROL RELATED DISORDERS” (AMGEN INC., priority 2011, published 2014)

Key:
[1] = test system: human patient exhibiting a Cholesterol Related Disorder; assay: Treatment of cholesterol related disorders (Example 16); type: in vivo; conditions: therapeutically effective amount
Text: At periodic times during the treatment, the patient is monitored to determine whether the symptoms of the disorder have subsided.

[2] = biological target: D374Y PCSK9 binding to LDLR (Homo sapiens, UniProt Q8NBP7, D374Y); assay: Large scale receptor ligand blocking screen and functional classification of ABPs; conditions: functional assays of the screening
Protocol: To screen for the antibodies that block PCSK9 binding to LDLR an assay was developed using the D374Y PCSK9 mutant. […] The following protocol was employed in the receptor ligand blocking screen: Costar 3702 medium binding 384 well plates (Corning Life Sciences) were employed in the screen. The plates were coated with goat anti-LDLR (R&D Cat #AF2148) at 2 μg/ml in 1×PBS/0.05% Azide at a volume of 40 μl/well. The plates were incubated at 4° C. overnight. The plates were then washed using a Titertek plate washer (Titertek, Huntsville, Ala.). A 3-cycle wash was performed. The plates were blocked with 90 μl of 1×PBS/1% milk and incubated approximately 30 minutes at room temperature. The plates were then washed using the Titertek plate washer. A 3-cycle wash was performed. The capture sample was LDLR (R&D, Cat #2148LD/CF), and was added at 0.4 μg/ml in 1×PBS/1% milk/10 mM Ca^2+ at a volume of 40 μl/well. The plates were then incubated for 1 hour and 10 minutes at room temperature. Contemporaneously, 20 ng/ml of biotinylated human D374Y PCSK9 was incubated with 15 micro liters of hybridoma exhaust supernatant in Nunc polypropylene plates and the exhaust supernatant concentration was diluted 1:5. The plates were then pre-incubated for about 1 hour and 30 minutes at room temperature. Next, the plates were washed using the Titertek plate washer operated using a 3-cycle wash. 50 μl/well of the pre-incubated mixture was transferred onto the LDLR coated ELISA plates and incubated for 1 hour at room temperature. To detect LDLR-bound b-PCSK9, 40 μl/well streptavidin HRP at 500 ng/ml in assay diluent was added to the plates. The plates were incubated for 1 hour at room temperature. The plates were again washed using a Titertek plate washer. A 3-cycle wash was performed. Finally, 40 μl/well of One-step TMB (Neogen, Lexington, Ky.) was added to the plate and was quenched with 40 μl/well of 1N hydrochloric acid after 30 minutes at room temperature. OD's were read immediately at 450 nm using a Titertek plate reader.
The receptor ligand assay was then repeated using the mutant enzyme on the 384 member subset of neutralizers identified in the first large scale receptor ligand inhibition assay. The same protocol was employed in the screen of the 384 member blocker subset assay as was done in the large scale receptor ligand blocking screen.
Limiting dilution was used to isolate a manageable number of clones from each line. […] The isolated clones were each expanded in 50-100 ml of hybridoma media and allowed to grow to exhaustion, (i.e., less than about 10% cell viability). The concentration and potency of the antibodies to PCSK9 in the supernatants of those cultures were determined by ELISA and by in vitro functional testing, as described herein.

B1: 21B12: human anti-PCSK9 monoclonal antibody; light/heavy variable region SEQ ID NO 23/49 (antibody, listed as Homo sapiens, V domains shown)
VH: QVQLVQSGAEVKKPGASVKVSCKASGYTLTSYGISWVRQAPGQGLEWMGWVSFYNGNTNYAQKLQGRGTMTTDPSTSTAYMELRSLRSDDTAVYYCARGYGMDVWGQGTTVTVSS
VL: QSALTQPASVSGSPGQSITISCTGTSSDVGGYNSVSWYQQHPGKAPKLMIYEVSNRPSGVSNRFSGSKSGNTASLTISGLQAEDEADYYCNSYTSTSMVFGGGTKLTVL
B1 was tested, and the “serum cholesterol levels vs patients that are not treated” value [1] was “reduced serum cholesterol levels” and the “neutralizing ability (blocking PCSK9/LDLR)” value [2] was “neutralizing”.
